Tests used:
[1] = molecular target: T1, FLAG-D3D4: domain 3 and onwards (263-525) of human LAG-3 with N-terminal FLAG tag, on cells (human, UniProt P18627 263-525); test: same type of flow cytometry experiment using hybridoma culture supernatant
T1 construct: Expressed on HEK293T cells from pcDNA3.1; any leader before the FLAG tag is not described; also called construct containing domains 3 and 4
T1 sequence: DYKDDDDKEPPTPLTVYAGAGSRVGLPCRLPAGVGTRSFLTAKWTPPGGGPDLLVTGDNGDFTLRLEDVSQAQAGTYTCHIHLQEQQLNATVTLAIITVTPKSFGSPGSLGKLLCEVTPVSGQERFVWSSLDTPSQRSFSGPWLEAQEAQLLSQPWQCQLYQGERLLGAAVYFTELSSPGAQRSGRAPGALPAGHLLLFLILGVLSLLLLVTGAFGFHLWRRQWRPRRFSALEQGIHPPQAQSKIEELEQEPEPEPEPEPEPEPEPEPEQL

[2] = molecular target: T2, human LAG-3 (full length, expressed on cells) (human, UniProt P18627 23-525); test: flow cytometry on PHA-activated human T cells (PHA blasts) expressing LAG-3
T2 construct: also called CD223; hLAG-3
T2 sequence: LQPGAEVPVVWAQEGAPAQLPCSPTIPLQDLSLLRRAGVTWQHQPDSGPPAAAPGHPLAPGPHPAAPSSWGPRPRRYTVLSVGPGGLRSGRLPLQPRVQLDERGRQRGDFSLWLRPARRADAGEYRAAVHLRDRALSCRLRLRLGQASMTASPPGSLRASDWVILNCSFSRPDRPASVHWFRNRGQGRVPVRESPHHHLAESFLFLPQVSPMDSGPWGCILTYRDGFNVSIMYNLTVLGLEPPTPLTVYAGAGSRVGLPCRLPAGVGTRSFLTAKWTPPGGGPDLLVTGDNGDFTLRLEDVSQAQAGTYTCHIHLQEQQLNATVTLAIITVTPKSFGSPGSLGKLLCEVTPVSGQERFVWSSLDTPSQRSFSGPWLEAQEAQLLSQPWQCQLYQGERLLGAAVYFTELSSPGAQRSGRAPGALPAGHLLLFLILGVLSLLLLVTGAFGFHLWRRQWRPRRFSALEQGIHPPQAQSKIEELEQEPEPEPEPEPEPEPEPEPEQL

[3] = molecular target: T3, FLAG-D4: domain 4 and onwards (353-525) of human LAG-3 with N-terminal FLAG tag, on cells (human, UniProt P18627 353-525); test: flow cytometry on transfected HEK293T cells
T3 construct: Expressed on HEK293T cells from pcDNA3.1; any leader before the FLAG tag is not described; also called construct containing only domain 4
T3 sequence: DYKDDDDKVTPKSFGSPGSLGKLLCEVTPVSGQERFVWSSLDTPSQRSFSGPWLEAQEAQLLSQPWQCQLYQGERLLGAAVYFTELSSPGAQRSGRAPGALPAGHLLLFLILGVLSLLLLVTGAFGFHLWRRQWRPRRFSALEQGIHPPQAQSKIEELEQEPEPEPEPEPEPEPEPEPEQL
Description: (§1) It was further confirmed by flow cytometry that the antibody produced by the hybridomas determined to be positive by the Cell-ELISA in Example 1)-3 binds to PHA (phytohemagglutinin) activated human T cells (PHA blasts), a more physiologically relevant cell type expressing LAG-3. To human PBMCs stimulated with 2 μg/mL of PHA (manufactured by Sigma-Aldrich) for three days, was added a hybridoma culture supernatant for suspension, followed by reaction at 4° C. for 30 minutes. After washing with a FACS buffer (PBS, 0.1% BSA, and 0.1% sodium azide), a secondary antibody such as an Anti-Rat IgG PE conjugate (manufactured by Jackson ImmunoResearch Laboratories, Inc.) diluted 200-fold with a FACS buffer comprising a LIVE/DEAD Fixable Dead Cell Stain Kit-near-IR fluorescent reactive dye (manufactured by Invitrogen Corp.) was added thereto for suspension, followed by standing at 4° C. for 30 minutes. After washing with a FACS buffer, the cells were resuspended in PBS containing 1 to 2% paraformaldehyde, followed by detection using a flow cytometer (Cantoll: manufactured by Becton, Dickinson and Company or FC500: manufactured by Beckman Coulter Inc.). The data was analyzed using FlowJo (manufactured by Tree Star Inc). After removal of the LIVE/DEAD Fixable Dead Cell Stain Kit-near-IR fluorescent reactive dye-positive dead cells by gating, a histogram of the fluorescence intensity of the living cells was plotted.
(§2) Each expression plasmid (cloned into pcDNA3.1) of either domain 3 and onwards (263-525) or domain 4 and onwards (353-525) of human LAG-3 with a FLAG tag sequence ([…]) added to the N terminus was introduced into HEK293T cells using Lipofectamine 2000 (manufactured by Life Technologies Corp.), and the cells were cultured for 1 day and then recovered, to investigate the binding activity of the antibodies by flow cytometry according to the method described in Example 1)-4. […]

[4] = molecular target: T1, FLAG-D3D4: domain 3 and onwards …; test: flow cytometry on transfected HEK293T cells, antibody at 10 µg/mL
Description: as §1, §2

[5] = molecular target: T2, human LAG-3 (full length, expressed on …); test: flow cytometry on human LAG-3-expressing 293T-lacZ cells
Description: The flow cytometry was performed according to the method described in Example 1)-4, but an Anti-Human IgG PE conjugate (manufactured by Jackson ImmunoResearch Laboratories, Inc.) diluted 200-fold with a FACS buffer was used as the secondary antibody.

B1: rat anti-human LAG-3 monoclonal antibody rLA1264 (antibody, V domains shown)
VH: EVQLVESGGGLVQPGRSLKLSCAASGFTFSSYYMAWVRQAPTKGLEWVAYISNGGYSTYYRDSVKGRFTISRENAKSTLYLQMDSLRSEDTATYYCTITDHSGYRFTYWGQGTLVTVSS
VL: DIQMTQSPSLLSASVGDRVTLSCKASQSIYNSLAWYQQKLGEAPKLLIYDANSLQTGIPSRFSGSGSGTDFTLTISSLQPEDVATYFCQKYYSGNTFGAGTKLELKR
notes: Rat monoclonal antibody
[1]
  binding result: binds
[2]
  binding result: binds

B2: rat anti-human LAG-3 monoclonal antibody rLA212 (antibody, V domains shown)
VH: EVQLVESGGGLVQPGRSLKLSCAASGFTYRSYVMAWVRQAPTRGLEWVASISTGGGNTYYRDSVKGRFTISRDNAKNTLYLQMDSLRSEDTATYYCAEDMSNSGYGLFDYWGQGVMVTVSS
VL: NIVMTQSPKSMSISVGDRVTMNCKAGQNVDNNIAWYQKKPGQSPKLLIYYASNRNTGVPDRFTGGGYGTDFTLTINSVQAEDAAFYYCQRISNSPYTFGAGTELELKR
notes: Rat monoclonal antibody purified from hybridoma supernatant; the rat constant regions are not
[3]
  binding result: no binding (tested: 10 µg/mL)
[2]
  binding result: binds
[4]
  binding result: binds

B3: humanized anti-human LAG-3 antibody hLA212_H4/L2 (antibody, human IgG1, kappa, V domains shown)
VH: EVQLVESGGGLVQPGGSLRLSCAASGFTYRSYVMAWVRQAPGKGLEWVASISTGGGNTYYRDSVKGRFTISRDNAKNTLYLQMDSLRAEDTAVYYCAEDMSNSGYGLFDYWGQGTLVTVSS
VL: DIQMTQSPSSLSASVGDRVTITCKAGQNVDNNIAWYQQKPGQSPKLLIYYASNRNTGVPSRFSGSGYGTDFTLTISSLQPEDFATYYCQRISNSPYTFGQGTKVEIKR
modifications: defucosylated (sugar chain modification adjusted); peaks of fucose-containing H chain at or below the detection limit in mass spectrometry
notes: defucosylated form (human IgG1/kappa); also called hLA212 antibody H4/L2; low fucose form of hLA212_H3/L2
[5]
  binding result: binds

B4: rat anti-human LAG-3 monoclonal antibody rLA225 (antibody, V domains shown)
VH: EVQLVESGGGLVQPGRSMKLSCVASGFTFSNYYMAWVRQAPTKGLEWVASISTGGGNTYYRDSVKGRFTISRDNAKSTLYLQMDSLRSEDTATYYCARPPYGYNYGWFTYWGQGTLVTVSS
VL: DIQMTQSPASLSASLGETVTIECRASEDIHNGLVWYQQKPGKSPQLLIYNANSMHTGVPSRFSGSGSGTQYSLKINSLQSEDVASYFCQQYYNYPRTFGGGTKLELKR
notes: as for B2
[3]
  binding result: no binding (tested: 10 µg/mL)
[2]
  binding result: binds
[4]
  binding result: binds

B5: rat anti-human LAG-3 monoclonal antibody rLA869 (antibody, V domains shown)
VH: EVQLVESGGGLVQPGRSLKLSCAASGFTYRTYVMAWVRQGPTQGLEWVASISTGGVSTYYRDSVKGRFTISRDNAKNTLYLQMDSLRSEDTATYYCAKDMLNGYNSQGLFDYWGQGVMVTVSS
VL: NIVMTQSPKSMSISVGDRVTMNCRASQNVDNTIAWYQQKPGQSPKLLIYFASDRYTGVPDRFTGGGYGTDFTLTINSVQAEDAAFYYCQRIYNSPLTFGSGTKLEIRR
notes: Rat monoclonal antibody
[1]
  binding result: binds
[2]
  binding result: binds

— patent US20200262917A1 (Daiichi Sankyo, published 2020)
